Test [1] addresses Actin (rabbit skeletal muscle alpha actin), polymerized (F-actin) (rabbit) (UniProt P68135). As to the kind of experiment: co-sedimentation.
Test [2] has the same target. As to the kind of experiment: co-sedimentation. This is another data set of the same source.

Read-outs that look alike come from different tables or passages of the source.

Regarding “talin N-R11 (C-terminal truncation lacking R12 and the C-terminus), P26039 1-2141”, the co-sedimented talin fragment relative to talin-FL (relative to talin-FL) in test [1] was 1.3; in test [2] it was 1.1. Consider “talin N-R12 (C-terminal truncation), P26039 1-2294”, for which the co-sedimented talin fragment relative to talin-FL (relative to talin-FL) in test [1] turned out to be 0.68. As to “talin R1-C (truncation lacking the FERM domain), P26039 482-2541”, the co-sedimented talin fragment relative to talin-FL (relative to talin-FL) in test [1] worked out at 1.1; in test [2], 1.3.
